The supplement of paper PMC9112550, “Optimization of the antimicrobial peptide Bac7 by deep mutational scanning” (BMC Biology, 2022)

What follows are sequences tested on Escherichia coli TOP10 (assay: shrunken log2 fold change of peptide-encoding DNA abundance (4.5 h post-induction vs induction); higher = less antimicrobial activity (less host growth inhibition)). Conditions: time post-induction: 4.5 h; library: site-saturation at positions 5, 18, 19, 20.
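Note: peptides expressed intracellularly from a pBAD plasmid library in pooled LB shake-flask culture, induced with 0.3% L-arabinose, DNA abundance read by NGS, three biological replicates, DESeq2 with apeglm shrinkage.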

Sequence	shrunken log2 fold change
RRIRCRPPRLPRPRPRPKMWPRP	1.22
RRIRYRPPRLPRPRPRPARDPRP	0.197
RRIRQRPPRLPRPRPRPPLAPRP	0.691
RRIRYRPPRLPRPRPRPRCPPRP	-0.167
RRIRTRPPRLPRPRPRPVPNPRP	0.123
RRIRARPPRLPRPRPRPQWVPRP	0.124
RRIRSRPPRLPRPRPRPEAFPRP	-0.0131
RRIRYRPPRLPRPRPRPHATPRP	-0.191
RRIRWRPPRLPRPRPRPAIAPRP	0.242
RRIRARPPRLPRPRPRPELMPRP	1.19
RRIRIRPPRLPRPRPRPICFPRP	-0.152
RRIRFRPPRLPRPRPRPPSMPRP	0.252
RRIRHRPPRLPRPRPRPKWEPRP	-0.000889
RRIRLRPPRLPRPRPRPTHEPRP	0.361
RRIRERPPRLPRPRPRPFQSPRP	-0.00776
RRIRGRPPRLPRPRPRPVDDPRP	0.882
RRIRNRPPRLPRPRPRPGWFPRP	-0.00934
RRIRNRPPRLPRPRPRPSGSPRP	-0.0937
RRIRLRPPRLPRPRPRPASWPRP	0.454
RRIRRRPPRLPRPRPRPRTTPRP	0.406
RRIRGRPPRLPRPRPRPIVFPRP	0.194

Sequence	shrunken log2 fold change
RRIRTRPPRLPRPRPRPFFAPRP	0.223
RRIRTRPPRLPRPRPRPGSQPRP	0.0756
RRIRKRPPRLPRPRPRPVGDPRP	0.247
RRIRNRPPRLPRPRPRPNTLPRP	-0.788
RRIRFRPPRLPRPRPRPGDKPRP	0.215
RRIRRRPPRLPRPRPRPIYCPRP	-0.0446
RRIRQRPPRLPRPRPRPMPNPRP	-0.215
RRIRQRPPRLPRPRPRPAFSPRP	0.12
RRIRPRPPRLPRPRPRPDDMPRP	0.0244
RRIRFRPPRLPRPRPRPANKPRP	-0.546
RRIRRRPPRLPRPRPRPLSEPRP	0.382
RRIRMRPPRLPRPRPRPDLYPRP	0.0737
RRIRHRPPRLPRPRPRPNICPRP	-0.925
RRIRCRPPRLPRPRPRPGCRPRP	0.569
RRIRNRPPRLPRPRPRPWRSPRP	0.111
RRIRKRPPRLPRPRPRPKACPRP	-0.00804
RRIRYRPPRLPRPRPRPFWCPRP	-0.208
RRIRNRPPRLPRPRPRPVWHPRP	-0.154
RRIRGRPPRLPRPRPRPYMFPRP	0.221
RRIRRRPPRLPRPRPRPLPHPRP	0.485
RRIRMRPPRLPRPRPRPCIRPRP	-0.122

Sequence	shrunken log2 fold change
RRIRFRPPRLPRPRPRPNRLPRP	-0.121
RRIRIRPPRLPRPRPRPFSTPRP	-0.38
RRIRMRPPRLPRPRPRPIFWPRP	0.337
RRIRVRPPRLPRPRPRPQFQPRP	-0.0795
RRIRWRPPRLPRPRPRPNPLPRP	3.58e-05
RRIRARPPRLPRPRPRPLSYPRP	-0.00336
RRIRQRPPRLPRPRPRPQITPRP	-0.337
RRIRDRPPRLPRPRPRPIAGPRP	-0.0166
RRIRRRPPRLPRPRPRPGVRPRP	0.318
RRIRCRPPRLPRPRPRPSYKPRP	-0.572
RRIRLRPPRLPRPRPRPHTPPRP	-0.295
RRIRVRPPRLPRPRPRPVGDPRP	0.294
RRIRQRPPRLPRPRPRPFNSPRP	-0.3
RRIRYRPPRLPRPRPRPITEPRP	-0.101
RRIRPRPPRLPRPRPRPQDDPRP	-0.367
RRIRWRPPRLPRPRPRPFSQPRP	-0.0772
RRIRNRPPRLPRPRPRPLSFPRP	-0.387
RRIRIRPPRLPRPRPRPNCGPRP	0.0437
RRIRFRPPRLPRPRPRPLLDPRP	-0.0563
RRIRLRPPRLPRPRPRPWSMPRP	0.202
